Source: US20210071139A1

Tests used:
Assay in all cases: anti-TOX IP from EL4 nuclear extract, LC-MS/MS, MiST
Hs2st1 = Hs2st1 (UniProt Q8R3H7)
Afg3l1 = Afg3l1 (UniProt Q920A7)
Snx9 = Snx9 (UniProt Q91VH2)
Ppp1r10 = Ppp1r10 (UniProt Q80W00)
Ddx55 = Ddx55 (UniProt Q6ZPL9)
Ing2 = Ing2 (UniProt Q9ESK4)
Trim21 = Trim21 (UniProt Q62191)
Tagln2 = Tagln2 (UniProt Q9WVA4)
Safb; Safb2; mKIAA0138 = target: Safb; Safb2; mKIAA0138
Anln = Anln (UniProt Q8K298)
Cd2ap = Cd2ap (UniProt Q9JLQ0)
Cdc23 = Cdc23 (UniProt Q8BGZ4)
Utp18 = Utp18 (UniProt Q5SSI6)
Tpm4 = Tpm4 (UniProt Q6IRU2)
Kifc5b; Kifc1 = target: Kifc5b; Kifc1
Rif1 = Rif1 (UniProt Q6PR54)
Pml = Pml (UniProt Q60953)
Dlgap5 = Dlgap5 (UniProt Q8K4R9)
Cdc27 = Cdc27 (UniProt A2A6Q5)
Dido1 = Dido1 (UniProt Q8C9B9)
Eif4g2 = Eif4g2 (UniProt Q62448)
Rrp1b = Rrp1b (UniProt Q91YK2)
Pdlim1 = Pdlim1 (UniProt O70400)
Cdk9 = Cdk9 (UniProt Q99J95)
Dhx30 = Dhx30 (UniProt Q99PU8)

Sequence of Eif4g2 (Q62448 whole entry): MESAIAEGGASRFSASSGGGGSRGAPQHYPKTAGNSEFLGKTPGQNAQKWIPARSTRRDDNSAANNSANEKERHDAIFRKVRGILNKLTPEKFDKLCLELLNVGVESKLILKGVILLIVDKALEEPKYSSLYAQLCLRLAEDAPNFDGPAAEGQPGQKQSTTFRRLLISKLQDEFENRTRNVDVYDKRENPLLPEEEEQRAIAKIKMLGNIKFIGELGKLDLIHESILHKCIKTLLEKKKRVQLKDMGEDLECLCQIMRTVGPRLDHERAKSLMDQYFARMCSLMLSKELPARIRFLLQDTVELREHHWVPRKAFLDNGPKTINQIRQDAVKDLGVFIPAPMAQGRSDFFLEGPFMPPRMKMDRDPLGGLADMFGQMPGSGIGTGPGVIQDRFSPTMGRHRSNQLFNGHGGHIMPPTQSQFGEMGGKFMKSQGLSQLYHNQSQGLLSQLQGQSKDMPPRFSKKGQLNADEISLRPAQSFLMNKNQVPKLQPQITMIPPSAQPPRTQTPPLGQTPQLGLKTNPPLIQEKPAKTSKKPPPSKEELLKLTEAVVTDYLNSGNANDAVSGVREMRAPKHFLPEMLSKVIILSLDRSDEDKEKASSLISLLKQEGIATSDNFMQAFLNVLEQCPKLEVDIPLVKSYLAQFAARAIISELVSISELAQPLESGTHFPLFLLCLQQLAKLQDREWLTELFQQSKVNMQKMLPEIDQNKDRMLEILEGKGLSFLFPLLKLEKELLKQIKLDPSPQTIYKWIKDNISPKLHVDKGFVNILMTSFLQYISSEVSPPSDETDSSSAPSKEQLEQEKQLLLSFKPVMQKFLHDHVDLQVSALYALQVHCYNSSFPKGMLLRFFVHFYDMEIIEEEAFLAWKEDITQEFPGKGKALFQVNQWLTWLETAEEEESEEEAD
Sequence of Dido1 (Q8C9B9 whole entry): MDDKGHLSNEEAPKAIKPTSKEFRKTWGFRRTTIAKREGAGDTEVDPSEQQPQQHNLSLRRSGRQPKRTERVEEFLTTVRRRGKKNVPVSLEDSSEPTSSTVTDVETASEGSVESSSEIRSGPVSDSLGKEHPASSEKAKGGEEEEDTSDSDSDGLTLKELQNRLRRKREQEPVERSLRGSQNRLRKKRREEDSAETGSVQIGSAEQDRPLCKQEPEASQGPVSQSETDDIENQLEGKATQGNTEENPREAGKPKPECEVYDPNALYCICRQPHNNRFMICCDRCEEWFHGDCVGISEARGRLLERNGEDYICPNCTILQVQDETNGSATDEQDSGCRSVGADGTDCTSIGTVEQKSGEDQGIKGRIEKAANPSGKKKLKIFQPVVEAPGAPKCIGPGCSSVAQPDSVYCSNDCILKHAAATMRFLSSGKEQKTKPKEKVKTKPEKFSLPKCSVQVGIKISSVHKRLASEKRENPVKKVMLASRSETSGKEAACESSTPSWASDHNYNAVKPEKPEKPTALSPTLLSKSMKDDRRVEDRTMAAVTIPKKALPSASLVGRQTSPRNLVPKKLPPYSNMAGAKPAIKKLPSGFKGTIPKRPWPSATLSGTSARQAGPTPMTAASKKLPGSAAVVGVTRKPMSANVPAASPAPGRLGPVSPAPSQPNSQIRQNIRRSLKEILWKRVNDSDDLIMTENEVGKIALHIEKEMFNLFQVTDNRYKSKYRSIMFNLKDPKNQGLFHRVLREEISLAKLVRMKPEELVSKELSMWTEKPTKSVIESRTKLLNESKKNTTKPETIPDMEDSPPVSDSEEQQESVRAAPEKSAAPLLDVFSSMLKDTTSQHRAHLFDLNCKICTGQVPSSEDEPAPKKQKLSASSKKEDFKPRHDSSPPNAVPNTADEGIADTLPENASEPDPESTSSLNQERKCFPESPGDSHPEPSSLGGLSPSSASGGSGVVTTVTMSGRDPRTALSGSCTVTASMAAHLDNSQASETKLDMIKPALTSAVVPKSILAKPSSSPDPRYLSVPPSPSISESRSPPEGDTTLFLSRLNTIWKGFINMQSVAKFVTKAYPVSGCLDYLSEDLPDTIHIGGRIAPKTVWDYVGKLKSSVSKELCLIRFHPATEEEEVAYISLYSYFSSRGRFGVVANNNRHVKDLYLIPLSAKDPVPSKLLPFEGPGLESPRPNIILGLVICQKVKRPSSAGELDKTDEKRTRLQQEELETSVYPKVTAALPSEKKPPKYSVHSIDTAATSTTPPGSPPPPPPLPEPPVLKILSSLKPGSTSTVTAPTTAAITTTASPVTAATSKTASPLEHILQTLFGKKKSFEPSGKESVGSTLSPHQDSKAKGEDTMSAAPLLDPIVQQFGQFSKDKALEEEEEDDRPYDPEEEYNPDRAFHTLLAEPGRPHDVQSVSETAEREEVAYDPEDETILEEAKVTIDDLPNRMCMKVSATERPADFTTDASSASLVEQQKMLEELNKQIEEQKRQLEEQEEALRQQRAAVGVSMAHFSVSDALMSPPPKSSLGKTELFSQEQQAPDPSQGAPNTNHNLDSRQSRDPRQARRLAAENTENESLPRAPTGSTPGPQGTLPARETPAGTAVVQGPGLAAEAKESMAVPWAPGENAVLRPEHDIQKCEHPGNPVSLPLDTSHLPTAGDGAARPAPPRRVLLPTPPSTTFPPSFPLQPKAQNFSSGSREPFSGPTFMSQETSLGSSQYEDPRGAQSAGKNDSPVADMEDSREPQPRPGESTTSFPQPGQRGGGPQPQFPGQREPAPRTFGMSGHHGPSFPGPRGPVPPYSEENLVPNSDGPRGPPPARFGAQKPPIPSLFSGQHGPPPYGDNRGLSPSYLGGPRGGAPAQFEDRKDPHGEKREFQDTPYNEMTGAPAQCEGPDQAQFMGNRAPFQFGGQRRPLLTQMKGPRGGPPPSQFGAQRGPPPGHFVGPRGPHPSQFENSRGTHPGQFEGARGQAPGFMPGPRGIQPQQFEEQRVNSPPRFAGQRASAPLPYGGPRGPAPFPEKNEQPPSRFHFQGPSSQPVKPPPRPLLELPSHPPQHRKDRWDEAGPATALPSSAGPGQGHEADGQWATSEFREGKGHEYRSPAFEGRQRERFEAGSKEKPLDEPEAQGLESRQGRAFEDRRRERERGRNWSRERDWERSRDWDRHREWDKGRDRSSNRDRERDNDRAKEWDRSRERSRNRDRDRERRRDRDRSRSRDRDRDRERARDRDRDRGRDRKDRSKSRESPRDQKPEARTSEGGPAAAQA
Sequence of Tagln2 (Q9WVA4 2-199 limits assumed): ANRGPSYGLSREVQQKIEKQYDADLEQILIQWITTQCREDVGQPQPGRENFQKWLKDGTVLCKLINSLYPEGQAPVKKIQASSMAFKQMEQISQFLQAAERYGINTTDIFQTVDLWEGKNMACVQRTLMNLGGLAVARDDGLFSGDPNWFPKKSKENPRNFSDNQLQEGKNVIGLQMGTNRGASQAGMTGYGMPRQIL
Sequence of Pdlim1 (O70400 2-327 limits assumed): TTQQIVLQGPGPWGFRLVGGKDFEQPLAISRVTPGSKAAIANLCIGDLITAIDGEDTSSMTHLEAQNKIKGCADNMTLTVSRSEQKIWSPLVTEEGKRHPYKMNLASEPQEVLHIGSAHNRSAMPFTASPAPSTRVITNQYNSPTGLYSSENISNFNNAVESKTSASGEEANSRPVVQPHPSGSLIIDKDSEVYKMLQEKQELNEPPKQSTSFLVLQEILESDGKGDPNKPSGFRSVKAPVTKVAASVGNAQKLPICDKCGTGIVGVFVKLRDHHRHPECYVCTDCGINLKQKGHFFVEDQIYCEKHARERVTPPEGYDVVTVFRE
Sequence of Pml (Q60953 whole entry): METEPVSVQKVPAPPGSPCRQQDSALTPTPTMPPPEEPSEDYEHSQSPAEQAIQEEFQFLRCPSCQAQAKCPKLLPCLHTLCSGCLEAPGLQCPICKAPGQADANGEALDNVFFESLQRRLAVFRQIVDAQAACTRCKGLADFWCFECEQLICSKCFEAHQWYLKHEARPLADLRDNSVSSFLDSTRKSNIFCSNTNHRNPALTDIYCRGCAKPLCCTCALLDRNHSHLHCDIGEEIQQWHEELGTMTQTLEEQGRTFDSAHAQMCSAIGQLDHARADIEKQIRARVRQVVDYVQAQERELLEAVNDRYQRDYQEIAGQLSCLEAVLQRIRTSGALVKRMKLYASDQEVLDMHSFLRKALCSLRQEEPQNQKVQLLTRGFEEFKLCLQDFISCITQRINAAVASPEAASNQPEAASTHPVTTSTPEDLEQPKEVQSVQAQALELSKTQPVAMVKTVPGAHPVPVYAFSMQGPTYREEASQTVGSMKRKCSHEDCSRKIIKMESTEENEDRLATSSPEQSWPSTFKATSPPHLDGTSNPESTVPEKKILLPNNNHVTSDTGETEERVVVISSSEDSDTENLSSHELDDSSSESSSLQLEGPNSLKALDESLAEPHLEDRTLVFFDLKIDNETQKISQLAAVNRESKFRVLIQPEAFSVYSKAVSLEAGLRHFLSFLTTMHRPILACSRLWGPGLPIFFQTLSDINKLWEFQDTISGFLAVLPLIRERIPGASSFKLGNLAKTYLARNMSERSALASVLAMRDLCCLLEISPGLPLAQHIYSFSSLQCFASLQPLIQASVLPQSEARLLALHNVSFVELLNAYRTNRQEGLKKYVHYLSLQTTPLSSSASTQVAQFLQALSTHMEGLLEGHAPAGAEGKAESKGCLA
Sequence of Hs2st1 (Q8R3H7 whole entry): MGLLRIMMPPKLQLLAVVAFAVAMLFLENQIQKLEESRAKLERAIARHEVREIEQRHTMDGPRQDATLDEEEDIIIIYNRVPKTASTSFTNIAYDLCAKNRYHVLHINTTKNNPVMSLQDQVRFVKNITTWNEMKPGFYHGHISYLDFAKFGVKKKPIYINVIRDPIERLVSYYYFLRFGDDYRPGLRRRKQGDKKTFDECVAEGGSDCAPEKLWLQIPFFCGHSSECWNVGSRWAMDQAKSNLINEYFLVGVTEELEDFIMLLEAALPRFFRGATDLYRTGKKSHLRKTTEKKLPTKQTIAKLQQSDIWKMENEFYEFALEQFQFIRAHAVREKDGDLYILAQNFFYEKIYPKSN

## TOX (from UniProt Q66JW3 1-526)
Hs2st1
  Abundance: 6.47e-06
  MiST Score: 0.879
  Reproducibility: 0.628
  Specificity: 1
Afg3l1
  Abundance: 2.15e-06
  MiST Score: 0.874
  Reproducibility: 0.61
  Specificity: 1
Snx9
  Abundance: 5.29e-06
  MiST Score: 0.877
  Reproducibility: 0.621
  Specificity: 1
Ppp1r10
  Abundance: 1.37e-05
  MiST Score: 0.868
  Reproducibility: 0.65
  Specificity: 0.974
Ddx55
  Abundance: 2.21e-06
  MiST Score: 0.863
  Reproducibility: 0.574
  Specificity: 1
Ing2
  Abundance: 2.44e-05
  MiST Score: 0.878
  Reproducibility: 0.625
  Specificity: 1
Trim21
  Abundance: 4.56e-06
  MiST Score: 0.858
  Reproducibility: 0.56
  Specificity: 1
Tagln2
  Abundance: 1.75e-05
  MiST Score: 0.875
  Reproducibility: 0.616
  Specificity: 1
Safb; Safb2; mKIAA0138
  Abundance: 3.18e-06
  MiST Score: 0.873
  Reproducibility: 0.609
  Specificity: 1
Anln
  Abundance: 4.57e-07
  MiST Score: 0.861
  Reproducibility: 0.567
  Specificity: 1
Cd2ap
  Abundance: 5.85e-07
  MiST Score: 0.879
  Reproducibility: 0.628
  Specificity: 1
Cdc23
  Abundance: 6.55e-06
  MiST Score: 0.872
  Reproducibility: 0.758
  Specificity: 0.931
Utp18
  Abundance: 1.83e-05
  MiST Score: 0.865
  Reproducibility: 0.582
  Specificity: 1
Tpm4
  Abundance: 0.000138
  MiST Score: 0.859
  Reproducibility: 0.979
  Specificity: 0.812
Kifc5b; Kifc1
  Abundance: 1.73e-06
  MiST Score: 0.88
  Reproducibility: 0.63
  Specificity: 1
Rif1
  Abundance: 1.07e-07
  MiST Score: 0.874
  Reproducibility: 0.611
  Specificity: 1
Pml
  Abundance: 8.97e-06
  MiST Score: 0.858
  Reproducibility: 0.557
  Specificity: 1
Dlgap5
  Abundance: 6.65e-06
  MiST Score: 0.876
  Reproducibility: 0.81
  Specificity: 0.914
Cdc27
  Abundance: 6.71e-06
  MiST Score: 0.87
  Reproducibility: 0.597
  Specificity: 1
Dido1
  Abundance: 3.41e-07
  MiST Score: 0.878
  Reproducibility: 0.624
  Specificity: 1
Eif4g2
  Abundance: 4.84e-06
  MiST Score: 0.866
  Reproducibility: 0.887
  Specificity: 0.864
Rrp1b
  Abundance: 4.86e-06
  MiST Score: 0.875
  Reproducibility: 0.955
  Specificity: 0.847
Pdlim1
  Abundance: 1.21e-05
  MiST Score: 0.858
  Reproducibility: 0.559
  Specificity: 1
Cdk9
  Abundance: 1.6e-05
  MiST Score: 0.865
  Reproducibility: 0.581
  Specificity: 1
Dhx30
  Abundance: 2.07e-06
  MiST Score: 0.89
  Reproducibility: 0.892
  Specificity: 0.897
